Measurements reported in US20240034813A1 (Janssen / Centocor, published 2024).

Assays:
[1] = biological target: T1, recombinant human EGFR/ErbB1/HER1 with C-terminal His tag, Cy5-labeled (human, UniProt P00533 25-645, Cy5 label (reacted with Cy5 Mono NHS Ester; sites not stated)); assay: competitive TR-FRET (Eu-amivantamab/Cy5-EGFR), EC50 ratio vs Reference Material; Ex. 2 Formulation 2 (50 mM histidine), T0, 40 C table
T1 construct: Commercial protein; also called Cy5-EGFR; Cy5-labeled EGFR antigen; not shown: C-terminal His tag
Excerpt: (§1) In this procedure, varying concentrations of unlabeled bispecific EGFR-cMet antibody sample compete with donor fluorophore (Europium (Eu) chelate) labeled bispecific EGFR-cMet antibody for binding to an acceptor fluorophore (Cy5)-labeled EGFR antigen. Excitation of the donor fluorophore results in a transfer of energy to the bound acceptor fluorophore (FRET process). The resultant FRET is detected by emission of light at 665 nm using a microplate reader capable of measuring time-resolved fluorescence. Sample dose response curves are compared to the RM.
(§2) EGFR Binding Materials and Methods. Certified commercial EGFR, a recombinant human EGFR/ErbB1/HER1 with C-terminal His tag is reacted with certified commercial Cy5 Mono NHS Ester to produce Cy5-labeled EGFR. Validated bispecific EGFR-cMet antibody is reacted with certified commercial Europium (Eu) chelate to produce Eu-labeled bispecific EGFR-cMet antibody. […] Fluorescence is then measured by spectrophotometry at 665 nm, plotted against antibody concentration and analyzed by a four-parameter logistic model. The antibody concentration required to obtain half of the maximum fluorescence response (EC50) is determined for RM, assay control and samples. The potencies of assay control and samples are calculated based on the ratio of the sample (or control) and RM EC50 values and reported as a percentage activity relative to the RM.

[2] = biological target: T1, recombinant human EGFR/ErbB1/HER1 with …; assay: competitive TR-FRET (Eu-amivantamab/Cy5-EGFR), EC50 ratio vs Reference Material; Ex. 2 Formulation 2 (50 mM histidine), 3 months at 40 C
Excerpt: as §1, §2

[3] = biological target: T2, recombinant cMet/HGFR with c-terminal His-tag, Cy5-labeled (UniProt P08581 25-932, limits assumed, Cy5 label (reacted with Cy5 Mono NHS Ester; sites not stated)); assay: competitive TR-FRET (Eu-amivantamab/Cy5-c-MET), EC50 ratio vs Reference Material; Ex. 2 Formulation 3 (acetate), 3 months at 25 C
T2 construct: Commercial protein; also called Cy5-c-MET; Cy5-labeled c-MET antigen; not shown: C-terminal His-tag
Excerpt: as §1, with “(Cy5)-labeled c-MET” for “(Cy5)-labeled EGFR”, “the Reference Material (RM).” for “the RM.”
as §2, with “c-MET Binding” for “EGFR Binding”, “commercial cMet,” for “commercial EGFR,”, “recombinant cMet/HGFR” for “recombinant human EGFR/ErbB1/HER1”, “with c-terminal His-tag” for “with C-terminal His tag”, “Cy5-labeled c-MET.” for “Cy5-labeled EGFR.”, “produce Eu labeled” for “produce Eu-labeled”

[4] = biological target: T1, recombinant human EGFR/ErbB1/HER1 with …; assay: competitive TR-FRET (Eu-amivantamab/Cy5-EGFR), EC50 ratio vs Reference Material; Ex. 12 drug product with rHuPH20, 3 months at 40 C
Excerpt: as §1, §2

[5] = biological target: T2, recombinant cMet/HGFR with c-terminal …; assay: competitive TR-FRET (Eu-amivantamab/Cy5-c-MET), EC50 ratio vs Reference Material; Ex. 2 Formulation 3 (acetate), 3 months at 40 C
Excerpt: as §1, with “(Cy5)-labeled c-MET” for “(Cy5)-labeled EGFR”, “the Reference Material (RM).” for “the RM.”
as §2, with “c-MET Binding” for “EGFR Binding”, “commercial cMet,” for “commercial EGFR,”, “recombinant cMet/HGFR” for “recombinant human EGFR/ErbB1/HER1”, “with c-terminal His-tag” for “with C-terminal His tag”, “Cy5-labeled c-MET.” for “Cy5-labeled EGFR.”, “produce Eu labeled” for “produce Eu-labeled”

[6] = biological target: T1, recombinant human EGFR/ErbB1/HER1 with …; assay: competitive TR-FRET (Eu-amivantamab/Cy5-EGFR), EC50 ratio vs Reference Material; Ex. 2 Formulation 2 (50 mM histidine), 1 month at 40 C
Excerpt: as §1, §2

[7] = biological target: T2, recombinant cMet/HGFR with c-terminal …; assay: competitive TR-FRET (Eu-amivantamab/Cy5-c-MET), EC50 ratio vs Reference Material; Ex. 11 drug product, 0 months, 40 C table
Excerpt: as §1, with “(Cy5)-labeled c-MET” for “(Cy5)-labeled EGFR”, “the Reference Material (RM).” for “the RM.”
as §2, with “c-MET Binding” for “EGFR Binding”, “commercial cMet,” for “commercial EGFR,”, “recombinant cMet/HGFR” for “recombinant human EGFR/ErbB1/HER1”, “with c-terminal His-tag” for “with C-terminal His tag”, “Cy5-labeled c-MET.” for “Cy5-labeled EGFR.”, “produce Eu labeled” for “produce Eu-labeled”

[8] = biological target: T2, recombinant cMet/HGFR with c-terminal …; assay: competitive TR-FRET (Eu-amivantamab/Cy5-c-MET), EC50 ratio vs Reference Material; Ex. 11 drug product, 3 months at 5 C
Excerpt: as §1, with “(Cy5)-labeled c-MET” for “(Cy5)-labeled EGFR”, “the Reference Material (RM).” for “the RM.”
as §2, with “c-MET Binding” for “EGFR Binding”, “commercial cMet,” for “commercial EGFR,”, “recombinant cMet/HGFR” for “recombinant human EGFR/ErbB1/HER1”, “with c-terminal His-tag” for “with C-terminal His tag”, “Cy5-labeled c-MET.” for “Cy5-labeled EGFR.”, “produce Eu labeled” for “produce Eu-labeled”

B1: amivantamab (bispecific antibody, human IgG1, kappa)
heavy 1: not shown
light 1: not shown
heavy 2: not shown
light 2: DIQMTQSPSSVSASVGDRVTITCRASQGISNWLAWFQHKPGKAPKLLIYAASSLLSGVPSRFSGSGSGTDFTLTISSLQPEDFATYYCQQANSFPITFGQGTRLEIKRTVAAPSVFIFPPSDEQLKSGTASVVCLLNNFYPREAKVQWKVDNALQSGNSQESVTEQDSKDSTYSLSSTLTLSKADYEKHKVYACEVTHQGLSSPVTKSFNRGEC
notes: The samples tested were high concentration (160 mg/mL) formulations, fresh or stored or stressed; also called JNJ-61186372; bispecific EGFR-cMet antibody
[1]
  EGFR Binding % activity relative to RM: 103%
[2]
  EGFR Binding % activity relative to RM: 38%
[3]
  cMET Binding % activity relative to RM: 105%
[4]
  EGFR Binding activity relative to Reference Material (%): 9%
[5]
  cMET Binding % activity relative to RM: 85%
[6]
  EGFR Binding % activity relative to RM: 68%
[7]
  cMET Binding activity relative to Reference Material (%): 85%
[8]
  cMET Binding activity relative to Reference Material (%): 97%
